Experimental data from paper PMC4192074.
Like-named read-outs stand apart in the source and are kept apart here.

Experiments:
[1] = molecular target: T1, Dis3L2 wild type (mouse, UniProt Q8CI75 1-870); test: filter binding
T1 sequence: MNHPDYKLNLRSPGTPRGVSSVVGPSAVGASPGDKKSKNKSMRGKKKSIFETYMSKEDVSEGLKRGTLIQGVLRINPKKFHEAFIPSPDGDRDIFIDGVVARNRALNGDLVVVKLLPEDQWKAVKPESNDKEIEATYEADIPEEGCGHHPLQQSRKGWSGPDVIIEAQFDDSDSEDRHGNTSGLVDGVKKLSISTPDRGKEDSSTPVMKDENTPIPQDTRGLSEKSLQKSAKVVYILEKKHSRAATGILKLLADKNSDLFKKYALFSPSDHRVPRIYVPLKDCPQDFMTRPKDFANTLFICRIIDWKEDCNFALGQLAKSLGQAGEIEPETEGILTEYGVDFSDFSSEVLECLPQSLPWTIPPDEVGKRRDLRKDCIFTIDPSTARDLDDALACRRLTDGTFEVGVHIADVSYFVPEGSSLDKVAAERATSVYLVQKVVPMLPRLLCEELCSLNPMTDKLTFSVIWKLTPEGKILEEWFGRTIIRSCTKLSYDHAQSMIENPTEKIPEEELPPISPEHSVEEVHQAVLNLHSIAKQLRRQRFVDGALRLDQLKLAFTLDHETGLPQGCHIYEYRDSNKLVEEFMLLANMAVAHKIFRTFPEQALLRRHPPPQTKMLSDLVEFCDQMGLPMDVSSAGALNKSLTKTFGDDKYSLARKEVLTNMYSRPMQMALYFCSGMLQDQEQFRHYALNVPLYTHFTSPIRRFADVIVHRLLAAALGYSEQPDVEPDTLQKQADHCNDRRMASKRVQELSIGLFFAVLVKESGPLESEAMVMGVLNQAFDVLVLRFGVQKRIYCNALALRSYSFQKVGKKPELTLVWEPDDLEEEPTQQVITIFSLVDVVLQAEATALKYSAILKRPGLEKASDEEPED

[2] = molecular target: T1, Dis3L2 wild type; test: filter binding; remark: listed apart in the source
[3] = molecular target: T1, Dis3L2 wild type; test: filter binding; remark: listed apart in the source
[4] = molecular target: T1, Dis3L2 wild type; test: filter binding; remark: listed apart in the source
[5] = molecular target: T2, Dis3L2 truncated D389N (crystal construct) (mouse, UniProt Q8CI75 37-857, D389N;del148-169;del194-221); test: X-ray crystallography
T2 sequence: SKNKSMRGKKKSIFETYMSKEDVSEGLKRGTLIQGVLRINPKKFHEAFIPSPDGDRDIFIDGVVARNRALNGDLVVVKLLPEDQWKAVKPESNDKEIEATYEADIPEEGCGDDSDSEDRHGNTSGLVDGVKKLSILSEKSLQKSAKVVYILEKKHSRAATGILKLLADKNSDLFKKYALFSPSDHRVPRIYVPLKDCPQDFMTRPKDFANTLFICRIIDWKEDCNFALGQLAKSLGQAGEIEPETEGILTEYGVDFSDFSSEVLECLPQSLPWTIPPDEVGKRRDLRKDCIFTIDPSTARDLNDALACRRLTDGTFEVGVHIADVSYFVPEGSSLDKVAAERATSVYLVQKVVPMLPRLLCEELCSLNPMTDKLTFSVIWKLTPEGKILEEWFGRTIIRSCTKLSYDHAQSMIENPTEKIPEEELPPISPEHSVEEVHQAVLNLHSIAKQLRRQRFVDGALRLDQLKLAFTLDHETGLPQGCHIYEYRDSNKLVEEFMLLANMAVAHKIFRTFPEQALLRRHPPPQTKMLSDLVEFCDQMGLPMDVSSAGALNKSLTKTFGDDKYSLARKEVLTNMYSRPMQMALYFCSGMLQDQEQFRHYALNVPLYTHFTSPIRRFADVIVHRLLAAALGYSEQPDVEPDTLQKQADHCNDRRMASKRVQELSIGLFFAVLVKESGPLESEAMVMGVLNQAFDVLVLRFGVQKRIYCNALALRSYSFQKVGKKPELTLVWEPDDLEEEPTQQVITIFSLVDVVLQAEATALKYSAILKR

## UUUUUUUUUUUUUUU (ssRNA) [U15]
[1]
  binding result: binds

## AAAAAAAAAAAAAAA (ssRNA) [A15]
[2]
  binding signal: > 200 fold weaker than U15

## CCCCCCCCCCCCCCC (ssRNA) [C15]
[2]
  binding signal: > 200 fold weaker than U15

B1: pre-let-7 (pre-let7a1) (structured_RNA)
RNA: UGAGGUAGUAGGUUGUAUAGUUUUAGGGUCACACCCACCACUGGGAGAUAACUAUACAAUCUACUGUCUUUC
[3]
  binding signal: 10 fold weaker than pre-let-7-U15

## UUUUUUUUUUUUUUU (ssDNA, 2'-deoxyuridine at all positions) [deoxyU15]
[4]
  binding result: binds

## UUUUUUUUUUUUU (ssRNA) [U13]
[5]
  binding result: binds
